Common to all, as to assay: SEC
In general terms: In gel filtration, larger molecules generally elute earlier.

The target in experiment [1] is Δ4-ClpP (Escherichia coli).
The target in experiment [2] is Δ6-ClpP (Escherichia coli).
For experiment [3], the target named is Δ10-ClpP (Escherichia coli).
In experiment [4] the target is Δ14-ClpP (Escherichia coli).
The target in experiment [5] is Δ17-ClpP (Escherichia coli).

Δ4-ClpP (domain or fragment) came in with a stoichiometry N in experiment [1] of 14.

Regarding Δ6-ClpP (domain or fragment), in experiment [2], the stoichiometry N worked out at 14. Regarding Δ10-ClpP (domain or fragment), the stoichiometry N in experiment [3] worked out at 14. In experiment [4], Δ14-ClpP (domain or fragment) had a stoichiometry N of 14. Take Δ17-ClpP (domain or fragment): in experiment [5], the stoichiometry N amounted to 14.

Usually stoichiometry N stands for the number of molecules, sites or subunits per partner or assembly.
